Ends that are not written are not given here.

We go through 4 compounds from patent US20200330603A1, “PEPTIDES FOR RENAL THERAPY” (FRED HUTCHINSON CANCER RESEARCH CENTER, priority 2015, published 2020).

Data set [1] is described as follows: Accumulation of 14C-methylated peptide in renal tissue (Example 3). The class given is in vivo, mice. The note with it: 14C autoradiography, iv 30-100 nmol per mouse; 3 hours and 24 hours. How it is done:
This example describes accumulation of peptides of this disclosure in renal tissue. ^14C-methylated knotted peptides were intravenously dosed into mice at 30-100 nmol per mouse. […] Cryosectioning was performed on a Bright-Hacker cryotome, taking 40 μm sagittal sections. Collected sections were allowed to freeze dry at −20° C. for 48-72 hours before being exposed to phosphor imager plates. Plates were exposed for 7 days then scanned on a RayTest CR-Bio35 scanner. Analysis was performed with AIDA WBA analysis software.

Data set [2] in a line: Competitive renal uptake studies, fluorescence imaging of whole organs. As to conditions: 4 hours. The class given is in vivo, mice. How it is done: This example describes competitive uptake studies of peptides of this disclosure in kidneys. Peptides of this disclosure were compared to known kidney homers (“competitors”) to assess the efficiency and strength of kidney targeting. Three competitors were tested against a peptide of SEQ ID NO: 4, and kidney uptake was quantified by fluorescence imaging of whole organs on a Spectrum IVIS imager.
Kidneys from uninjected mice were used as a negative control. Fluorescence signal in each group was quantified to determine the average radiant efficiency in the kidneys from three mice per cohort. Data are shown as mean and error bars indicate standard deviation. A p-value of 0.0081 was calculated by a T-test, and the error bars indicate standard deviation. In this experiment, the unlabeled SEQ ID NO: 4 peptide competed with the SEQ ID NO: 4-AF647 as shown by decreased fluorescence and thus, decreased accumulation of the dye labeled peptide in the kidney. […] Fluorescence signal in each group was quantified to determine the average radiant efficiency in the kidneys from three mice per cohort. Data are shown as mean and error bars indicate standard deviation. Kidney uptake of a peptide of SEQ ID NO: 4-AF647 was not dampened by SEQ ID NO: 121 peptide even at the highest ratio of competitor. […] Fluorescence signal in each group was quantified to determine the average radiant efficiency in the kidneys from three mice per cohort. Data are shown as mean and error bars indicate standard deviation. A p-value of 0.015 was calculated by a Student's unpaired t-test.

Data set [3] can be described thus: Confocal imaging of kidneys 30 minutes after administration. The class given is in vivo, mice. As to conditions: 10 nmol. The source says: Kidneys were isolated, sectioned, and imaged using a Zeiss confocal microscopy.
Data set [4] is described as follows: Fluorescent peptide delivery to kidneys, whole body fluorescence analysis. The note with it: 10 nmol iv, average and standard deviation from two mice. The class given is in vivo. How it is done:
This example illustrates fluorescent peptide delivery to kidneys. Peptides were labeled by reaction with NHS esters of Cy5.5 or AlexaFluor 647 (AF647). For comparison, the free […] NHS esters were hydrolyzed to produce unreactive Cy5.5-COOH and AF647-COOH. A dose of 10 nmol of dye-labeled peptide or dye alone was administered intravenously and fluorescence was measured at 3 hours, 24 hours, and 48 hours after administration. At each time point, mice were frozen and sectioned for whole body fluorescence analysis, which was performed by scanning the sections on the Odyssey 2.1 at 84 um resolution using the 700 channel.
Average and standard deviation are presented from two mice per group.

For the compound “GSSCEPGRTFRDRCNTCRCGADGRSAACTLRACPNQ [SEQ ID NO: 4]”, the renal signal pattern result in data set [1] is “interacting with the kidney, likely cells of the proximal tubule”. Also, the “renal uptake in competition with unlabeled SEQ ID NO: 4 (FIG. 10)” value in data set [2] (2 nmol SEQ ID NO: 4-AF647 co-injected with 0, 10 or 50 nmol unlabeled peptide) is “specific and saturable”.
“SEQ ID NO: 4-AF647: SEQ ID NO: 4 conjugated to AF647 (GSSCEPGRTFRDRCNTCRCGADGRSAACTLRACPNQ; not fully specified; cysteine pairing not given here)”: in data set [3], the “accumulation of dye in the kidney proximal tubules (FIG. 13)” value is “can deliver and accumulate dye when attached as a conjugate in the kidney proximal tubules”. Moreover, in data set [2] (10 nmol iv, p-value of 0.015), the “renal uptake compared with control peptide-AF647 (FIG. 12)” value is given as “significantly higher extent than the control peptide”.
`CNCCC(Oc1ccc(C(F)(F)F)cc1)c1ccccc1` (centres unmarked) [fluoxetine, reference compound]: the renal signal pattern result in data set [1] is given as “non-interactive passage through the kidneys”.
With Cy5.5, the “Fluorescence Signal in Kidneys 3 hours” value in data set [4] (3 hours) is reported as 416 ± 170. Besides, the “Fluorescence Signal in Kidneys 24 hours” value in data set [4] (24 hours) was determined as 88 ± 8. Further, in data set [4] (48 hours), the “Fluorescence Signal in Kidneys 48 hours” value was 58 ± 11.
